In publication PMC5076532, “The Vesicle Priming Factor CAPS Functions as a Homodimer via C2 Domain Interactions to Promote Regulated Vesicle Exocytosis*” (The Journal of Biological Chemistry, 2016):

Assays:
[1] = biological target: the molecule itself; assay: native gel or EMSA; blue native (BN-PAGE, 5-14% or 6-14%) or clear native (CN-PAGE, 6%, 4 °C) gels of purified soluble protein without lipid; Coomassie or Western blot (CAPS or Myc antibody); 20 mM HEPES, 10 mM NaCl, 10 mM imidazole, 5% glycerol, pH 7.4 for CN-PAGE
[2] = biological target: the molecule itself; assay: native gel or EMSA; BN-PAGE of 5 μg of purified protein incubated with 1.5 μg of PI(4,5)P2 (micelles) for 0-30 min
[3] = biological target: the molecule itself; assay: cell-based or functional assay
[4] = biological target: the molecule itself; assay: atomic force microscopy (volume analysis); 100 pM CAPS dried onto freshly cleaved mica

B1: CAPS(G476E)-Myc-His (natural protein)
chain: not shown
notes: CAPS, Rattus norvegicus, NP_037351.1, point mutant made on pcDNA3.1 CAPS-Myc-His; also called counterpart of unc-31(e714); source: HEK293-FT, transfected, purified as Myc-His fusion protein
binding result [1]: binds

B2: CAPS(ΔC2)-Myc-His (natural protein)
chain: not shown
notes: CAPS, Rattus norvegicus, NP_037351.1; amino acids 400-516 deleted from the CAPS ORF, residue 399 directly fused to residue 517; also called ΔC2-CAPS; source: HEK293-FT, transfected, purified as Myc-His fusion protein
binding result [2]: binds

B3: CAPS-Myc-His (recombinant wild-type rat CAPS) (natural protein)
chain: not shown
notes: the CAPS ORF in pcDNA3.1 CAPS-Myc-His; the words 'full length' are used only for the antigen of the antibody; also called CAPS-1; CADPS; source: HEK293-FT, transfected (calcium phosphate), purified (nickel-nitrilotriacetic acid column)
Ca2+-dependent norepinephrine secretion from permeable PC12 cells: activity of bound CAPS-Myc-His (exclusively dimer) after wash, relative to added CAPS-Myc-His [3]: ~50% | stoichiometry N [4]: 2
